# According to patent US11440969B2, “Use of human epididymis protein 4 (HE4) for assessing responsiveness of MUC 16-positive cancer treatment” (Genentech, Inc., priority 2016, dated 2022):
# B1: DMUC4064A (conjugate, chains of the INN, looked up)
# VH: EVQLVESGGGLVQPGGSLRLSCAASGYSITNDYAWNWVRQAPGKGLEWVGYISYSGYTTYNPSLKSRFTISRDTSKNTLYLQMNSLRAEDTAVYYCARWTSGLDYWGQGTLVTVSS
# VL: DIQMTQSPSSLSASVGDRVTITCKASDLIHNWLAWYQQKPGKAPKLLIYGATSLETGVPSRFSGSGSGTDFTLTISSLQPEDFATYYCQQYWTTPFTFGQGTKVEIK
# modifications: vedotin payload (MMAE)
# Test system: platinum-resistant ovarian cancer
# Test: Clinical activity of anti-MUC16-TDC (RECIST v1.1) in ovarian cancer patients
# Assay type: in vivo, human
# Conditions: 1.0-5.6 mg/kg q3w
# Protocol: This Phase I, multicenter, open-label, dose escalation study was designed to identify the recommended Phase II dose (RP2D) of DMUC4064A (anti-MUC16-TDC) in platinum-resistant ovarian cancer patients and unresectable pancreatic cancer patients. The study employed a traditional 3+3 dose escalation design to determine the maximum tolerated dose (MTD), and the patients were administered intravenous (IV) DMUC4064A (Genentech Inc.) 1.0-5.6 mg/kg every three weeks (q3w) to evaluate the safety, tolerability, and pharmacokinetics of DMUC4064A.
# Ovarian cancer patients had advanced epithelial ovarian, primary peritoneal, or fallopian tube cancer that progressed or relapsed within 6 months after the most recent treatment with a platinum-containing chemotherapy regimen. […] Progression or relapse from prior platinum-based chemotherapy was documented by RECIST v1.1. Patients were allowed ≤2 prior chemotherapy regimens.
# Treatment (using anti-MUC16-TDC) response rate was estimated for patients with disease that was measurable by RECIST guidelines. Patients were identified as having a partial response (PR), stable disease (SD), or progressive disease (PD) as measured by RECIST v1.1. Objective response is defined as a complete or partial response, as determined by investigator assessment and confirmed by repeat assessments ≥4 weeks after initial documentation. Duration of objective response was defined as the time from the initial complete or partial response to the time of disease progression or death.
# [1] = end point of the clinical trial
molecule,measurement,setting,value
B1,additional patients with a partial response at some point during the study,,six
same,patients with progressive disease,conclusion of the study,ten
same,patients who maintained stable disease,[1],23
same,patients with a partial response to treatment,[1],two
